Article PMC2708863
pKd: −log10 of the molar value. Where two headings read alike, the source gives them in different places.

How the values were obtained:
Assay in all cases: NMR titration
[1] = target: ^2–3FnI, human fibronectin residues 93–182 (human) (UniProt P02751)
[2] = target: ^4–5FnI, human fibronectin residues 183–275 (human) (UniProt P02751)
[3] = target: ^4–5FnI, human fibronectin residues 183–275 (human) (UniProt P02751); remark: listed apart in the source
[4] = target: ^2–5FnI, second to fifth type I domains of human fibronectin (human)

Row | pKd [1] | pKd [2] | pKd [3] | pKd [4] | fractional saturation [4] [%] | Substance
1 | 3.15 | 2.92 | 3.09 |  |  | ^2FnIII, second type III domain of human fibronectin (domain or fragment)
2 |  |  |  | 3.90 | 25 | ^2–3FnIII, second and third type III domains of human fibronectin (domain or fragment)
